Where no end group is shown, it is not given here.

This test deals with BSA+oligo-Lys conjugate (oligo-Lys peptide K14C coupled to bovine serum albumin) (bovine) (UniProt P02769). The test is described as follows: MACN-labeled peptide in plasma matrix, 30 min in tubes coated with oligo-Lys-BSA to which the oligo-Asp-anti-PCT antibody was bonded; luminometer.
UniProt P02769, sequence (P02769 25-607, stated change not applied): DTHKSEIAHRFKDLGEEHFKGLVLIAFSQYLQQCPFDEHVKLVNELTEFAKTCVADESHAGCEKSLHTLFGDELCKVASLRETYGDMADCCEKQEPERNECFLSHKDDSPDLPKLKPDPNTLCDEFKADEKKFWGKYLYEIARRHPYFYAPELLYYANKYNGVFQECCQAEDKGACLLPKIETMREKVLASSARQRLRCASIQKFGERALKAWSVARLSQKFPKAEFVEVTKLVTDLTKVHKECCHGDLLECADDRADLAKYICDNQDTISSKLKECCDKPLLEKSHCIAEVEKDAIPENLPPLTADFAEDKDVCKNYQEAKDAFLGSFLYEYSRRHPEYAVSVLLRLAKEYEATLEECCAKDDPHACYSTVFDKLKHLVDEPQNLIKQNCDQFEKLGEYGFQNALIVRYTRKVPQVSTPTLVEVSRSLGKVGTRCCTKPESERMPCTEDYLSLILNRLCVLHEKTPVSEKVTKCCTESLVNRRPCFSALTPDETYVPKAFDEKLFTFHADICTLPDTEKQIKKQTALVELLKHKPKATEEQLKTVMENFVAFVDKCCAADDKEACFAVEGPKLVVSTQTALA
SSEEHLRQTRSETMRNSVKSSFHDPKLKGKPSRERYVTHNRAHW (also: MACN acridinium label, site not given here) [MACN-labeled peptide PSW44 (derived from proEndothelin)] displayed a percentage of non-specific binding relative to the total activity of 3%.
Consider PEVPPWTGEVSPAQRDGGALGGGGRGPWDSSDRSALLKSKL (also: MACN acridinium label, site not given here) [MACN-labeled peptide PPL41 (derived from NT-proANP)], for which the percentage of non-specific binding relative to the total activity turned out to be 3.1%.
In turn, ATQLDGPAGALLLRLVQLAGAPEPFEPAQPDAY (also: MACN acridinium label, site not given here) [MACN-labeled peptide PAY33 (derived from copeptin)] had a percentage of non-specific binding relative to the total activity of 6.5%.
ELRMSSSYPTGLADVKAGPAQTLIRPQDMKGASRSPEDSSPDAARIRV (also: MACN acridinium label, site not given here) [MACN-labeled Peptide 45-92 (derived from pro-adrenomedullin)] returned a percentage of non-specific binding relative to the total activity of 2.9%.

(Values after patent US20110020833A1.)
